{"source": "patent US20210189005A1", "about": "(RALLYBIO IPA, published 2021)", "binders": {"B1": {"name": "recombinant monoclonal antibody 26.4 IgG1 (antibody)", "heavy": "not shown", "light": "EIVLTQSPATLSLSPGERATLSCRASQSVSSYLAWYQQKPGQAPRLLIYDASKRATGIPARFSGSGSGTDFSLTIRSLEPEDFAVYYCQQRSDWQGLTFGGGTKVEIKRTVAAPSVFIFPPSDEQLKSGTASVVCLLNNFYPREAKVQWKVDNALQSGNSQESVTEQDSKDSTYSLSSTLTLSKADYEKHKVYACEVTHQGLSSPVTKSFNRGEC", "notes": "also called 26.4G1"}, "B2": {"name": "mAb 26.4 F(ab')2 fragment (other)", "VH": "QVQLQQSGPGLVKPSQTLSLTCAISGDSVSSNSAAWNWIRQSPSRGLEWLGRTYFRSNWYNDYAASVKSRITINQDTSKNQLSLQLNSVTPEDTAMYYCARDGAWGGSSWWPGLPHHYYSGMDVWGQGTTVTVSS", "VL": "EIVLTQSPATLSLSPGERATLSCRASQSVSSYLAWYQQKPGQAPRLLIYDASKRATGIPARFSGSGSGTDFSLTIRSLEPEDFAVYYCQQRSDWQGLTFGGGTKVEIK"}, "B3": {"name": "human HPA-1a-specific recombinant monoclonal antibody B2G1 (antibody, V domains shown)", "VH": "QVQLVQSGAEVKRPGAAVKVSCKASGYRFTGHYMHWVRQAPGQGLEWMGWINPNSGGTSYAQKFQGRVTMTRDTSISTAYMEMTRLRYDDTAVYYCAAGGLGGYYYYAMNIWGQGTTVTVSS", "VL": "QSALTQPASVSGSPGQSITISCTGTSSDVGGYNYVSWYQQHPGKAPKLMIYEVSNRPSGVSNRFSGSKSGNTASLTISGLQAEDEADYYCSSYTSSSTWVFGGGTKLTVL", "notes": "Generated by phage display and produced recombinantly as a human IgG detected by anti-human IgG; also called clone B2G1"}, "B4": {"name": "mouse monoclonal antibody SZ21 (antibody, V domains shown)", "VH": "LQESGPELVNPGASMKISCKASGYSFTGYTMNWVKQSHGKNLEWIGLINPYHGGSSYNQKFKGKATLTVDKSSSTAYMELLSLTSEDSAVYFCARRDANYVFFFDYWGQGTTVT", "VL": "ELTQSPALMSASPGEKVTMTCSASSGVSYIHWYQQKSGTSPKRWIYDTSKLASGVPARFSGSGSGTSYSLTISSMEAEDAATYYCQQWSSKPPTFGGGTKLE", "notes": "Bought murine mAb; variable regions as in Genebank AF354053 and AF354054 (the printed entries look truncated at both ends); also called clone SZ21; anti-β3 mAb (clone SZ21)"}}, "key": {"[1]": {"target": "T1, GPVI (hDID2) negative control peptide (UniProt Q9HCN6 21-205)", "T1 construct": "domain: hDID2; also called peptide negative control", "T1 sequence (looked up)": "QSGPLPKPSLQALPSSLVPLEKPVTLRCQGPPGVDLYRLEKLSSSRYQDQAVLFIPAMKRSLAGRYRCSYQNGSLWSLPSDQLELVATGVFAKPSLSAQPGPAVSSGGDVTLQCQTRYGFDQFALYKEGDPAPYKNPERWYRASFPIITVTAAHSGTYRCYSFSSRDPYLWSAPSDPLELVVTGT", "assay": "domain-deletion peptide ELISA"}, "[2]": {"target": "T2, integrin αVβ3 (vitronectin receptor) purified from human placenta (human, UniProt P06756 31-1048; P05106 27-788)", "T2 construct": "mature; Amine-coupled to a CM5 chip at 480 RU for SPR; also called purified αVβ3; Millipore CC1018", "T2 sequence (P06756 31-1048, form in doubt, chain 1 of 2)": "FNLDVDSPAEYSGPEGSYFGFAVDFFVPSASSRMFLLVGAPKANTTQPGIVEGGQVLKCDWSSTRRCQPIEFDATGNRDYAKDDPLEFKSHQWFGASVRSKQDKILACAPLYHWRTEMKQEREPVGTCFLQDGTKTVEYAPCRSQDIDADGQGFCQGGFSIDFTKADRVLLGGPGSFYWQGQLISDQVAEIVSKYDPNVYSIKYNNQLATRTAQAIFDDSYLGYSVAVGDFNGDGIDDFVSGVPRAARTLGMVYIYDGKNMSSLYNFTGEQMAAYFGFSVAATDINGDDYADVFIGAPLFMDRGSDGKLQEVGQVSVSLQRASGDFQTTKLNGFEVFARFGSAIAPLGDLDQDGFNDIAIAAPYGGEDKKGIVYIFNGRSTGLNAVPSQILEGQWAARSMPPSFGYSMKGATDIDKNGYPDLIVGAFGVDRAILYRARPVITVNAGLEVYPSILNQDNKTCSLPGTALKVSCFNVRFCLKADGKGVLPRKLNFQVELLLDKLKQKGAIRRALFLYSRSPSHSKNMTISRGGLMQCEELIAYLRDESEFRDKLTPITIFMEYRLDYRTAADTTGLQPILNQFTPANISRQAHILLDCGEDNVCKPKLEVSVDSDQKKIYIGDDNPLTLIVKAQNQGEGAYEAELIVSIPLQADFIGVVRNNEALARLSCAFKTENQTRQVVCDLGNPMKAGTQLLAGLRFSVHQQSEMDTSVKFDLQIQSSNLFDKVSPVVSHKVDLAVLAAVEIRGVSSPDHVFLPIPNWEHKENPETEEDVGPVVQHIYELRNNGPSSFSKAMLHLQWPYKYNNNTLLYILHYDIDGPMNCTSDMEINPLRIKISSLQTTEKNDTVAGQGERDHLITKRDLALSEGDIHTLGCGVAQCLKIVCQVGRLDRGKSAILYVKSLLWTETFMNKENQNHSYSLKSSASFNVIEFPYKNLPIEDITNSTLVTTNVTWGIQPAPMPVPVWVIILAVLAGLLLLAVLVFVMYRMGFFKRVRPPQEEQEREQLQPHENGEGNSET", "T2 sequence (P05106 27-788, form in doubt, chain 2 of 2)": "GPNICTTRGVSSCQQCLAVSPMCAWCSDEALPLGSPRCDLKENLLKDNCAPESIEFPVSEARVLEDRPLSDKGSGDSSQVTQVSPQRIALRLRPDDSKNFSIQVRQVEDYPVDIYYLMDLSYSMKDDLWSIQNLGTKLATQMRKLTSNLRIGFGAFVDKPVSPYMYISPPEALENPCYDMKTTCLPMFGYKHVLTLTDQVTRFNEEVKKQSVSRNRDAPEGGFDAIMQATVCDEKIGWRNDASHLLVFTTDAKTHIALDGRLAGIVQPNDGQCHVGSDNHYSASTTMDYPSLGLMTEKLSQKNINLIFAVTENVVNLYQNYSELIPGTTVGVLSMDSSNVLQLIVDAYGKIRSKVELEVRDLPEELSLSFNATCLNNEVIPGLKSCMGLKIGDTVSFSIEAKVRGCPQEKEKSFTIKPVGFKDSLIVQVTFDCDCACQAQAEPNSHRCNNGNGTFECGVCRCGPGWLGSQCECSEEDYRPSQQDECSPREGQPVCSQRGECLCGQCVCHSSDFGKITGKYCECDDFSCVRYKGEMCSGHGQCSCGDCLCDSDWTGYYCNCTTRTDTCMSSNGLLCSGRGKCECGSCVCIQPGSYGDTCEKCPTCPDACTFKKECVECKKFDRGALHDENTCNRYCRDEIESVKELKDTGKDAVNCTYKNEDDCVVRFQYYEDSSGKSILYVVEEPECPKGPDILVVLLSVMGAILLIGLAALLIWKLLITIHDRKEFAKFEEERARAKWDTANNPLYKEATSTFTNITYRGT", "assay": "SPR (Biacore T200), integrin amine-coupled to CM5 chip, after 120 s dissociation"}, "[3]": {"target": "T3, purified integrin αIIbβ3 from HPA-1aa platelets (HPA-1a antigen carrying version) (human, UniProt P08514 32-1039; P05106 27-788)", "T3 construct": "mature; Amine-coupled to a CM5 chip at 400 RU for SPR; also called αIIbβ3 (HPA-1a); αIIbβ3 from HPA-1aa individuals", "T3 sequence (P08514 32-1039, form in doubt, chain 1 of 2)": "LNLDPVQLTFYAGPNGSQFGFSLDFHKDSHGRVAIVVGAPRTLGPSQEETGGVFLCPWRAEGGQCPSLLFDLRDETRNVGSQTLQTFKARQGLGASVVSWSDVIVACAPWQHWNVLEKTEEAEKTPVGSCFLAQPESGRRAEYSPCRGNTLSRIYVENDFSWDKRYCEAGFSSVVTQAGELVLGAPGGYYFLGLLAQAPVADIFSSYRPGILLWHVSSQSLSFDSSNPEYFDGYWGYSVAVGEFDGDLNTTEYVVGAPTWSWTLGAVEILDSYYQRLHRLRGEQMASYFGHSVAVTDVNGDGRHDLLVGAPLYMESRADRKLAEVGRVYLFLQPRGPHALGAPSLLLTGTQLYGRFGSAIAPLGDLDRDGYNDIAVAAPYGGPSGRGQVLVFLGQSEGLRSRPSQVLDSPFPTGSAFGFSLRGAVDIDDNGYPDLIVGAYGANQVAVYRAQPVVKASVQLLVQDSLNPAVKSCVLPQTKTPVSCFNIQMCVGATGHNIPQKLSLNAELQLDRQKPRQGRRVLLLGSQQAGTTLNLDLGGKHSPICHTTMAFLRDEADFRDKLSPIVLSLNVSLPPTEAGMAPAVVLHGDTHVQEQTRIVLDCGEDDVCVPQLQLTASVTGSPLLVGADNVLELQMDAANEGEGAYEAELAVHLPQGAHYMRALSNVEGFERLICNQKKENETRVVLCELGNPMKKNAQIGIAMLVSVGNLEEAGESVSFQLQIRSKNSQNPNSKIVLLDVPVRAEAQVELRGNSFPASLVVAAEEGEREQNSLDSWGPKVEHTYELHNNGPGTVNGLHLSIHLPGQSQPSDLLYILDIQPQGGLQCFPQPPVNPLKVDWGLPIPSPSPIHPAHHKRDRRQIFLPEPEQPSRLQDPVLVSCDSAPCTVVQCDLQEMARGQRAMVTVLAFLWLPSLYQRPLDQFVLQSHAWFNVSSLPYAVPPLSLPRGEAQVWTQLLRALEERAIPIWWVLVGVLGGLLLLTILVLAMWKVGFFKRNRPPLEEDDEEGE", "T3 sequence (P05106 27-788, form in doubt, chain 2 of 2)": "as the sequence (P05106 27-788, form in doubt, chain 2 of 2) above", "assay": "SPR (Biacore T200), integrin amine-coupled to CM5 chip, after 120 s dissociation"}, "[4]": {"target": "T2, integrin αVβ3 (vitronectin receptor) …", "assay": "SPR, 120 s dissociation, average of three concentrations"}, "[5]": {"target": "T3, purified integrin αIIbβ3 from HPA-1aa …", "assay": "SPR, 120 s dissociation, average of three concentrations"}, "[6]": {"target": "T2, integrin αVβ3 (vitronectin receptor) …", "assay": "SPR (Biacore T200), integrin amine-coupled to CM5 chip, antibody injected 120 s"}, "[7]": {"target": "T3, purified integrin αIIbβ3 from HPA-1aa …", "assay": "SPR (Biacore T200), integrin amine-coupled to CM5 chip, antibody injected 120 s"}, "[8]": {"target": "T4, integrin αIIbβ3 (glycoprotein IIbIIIa) bearing HPA-1a (Leu33) on intact HPA-1a-positive platelets (human, UniProt P08514 32-1039; P05106 27-788)", "T4 construct": "whole, on cells; HPA-1ab platelets carry both allotypes; results on them are marked in the row; also called HPA-1aa platelets; HPA-1a homozygous platelets", "T4 sequence (P08514 32-1039, chain 1 of 2)": "as the sequence (P08514 32-1039, form in doubt, chain 1 of 2) above", "T4 sequence (P05106 27-788, chain 2 of 2)": "as the sequence (P05106 27-788, form in doubt, chain 2 of 2) above", "assay": "MAIPA inhibition assay on HPA-1aa platelets; blocked antibodies: polyclonal anti-HPA-1a IgG of 10 donor sera"}, "[9]": {"target": "T1, GPVI (hDID2) negative control peptide", "assay": "domain-deletion peptide ELISA", "remark": "listed apart in the source"}}, "note": "Where two headings read alike, the source gives them in different places."}
{"binder": "B1", "values": [{"measurement": "binding result", "setting": "[1]", "result": "no binding (tested: 10 µg/ml)"}, {"measurement": "% dissociated", "setting": "[2]", "result": 35.1, "unit": "%"}, {"measurement": "bound after dissociation (RU)", "setting": "[2]", "result": 12.2, "unit": "RU"}, {"measurement": "% dissociated", "setting": "[3]", "result": 21.4, "unit": "%"}, {"measurement": "bound after dissociation (RU)", "setting": "[3]", "result": 49.6, "unit": "RU"}, {"measurement": "% remaining bound at the end of the dissociation period", "setting": "[4]", "result": 66.8, "unit": "%"}, {"measurement": "% remaining bound at the end of the dissociation period", "setting": "[5]", "result": "~81", "unit": "%"}, {"measurement": "bound (RU)", "setting": "[6]", "result": 18.8, "unit": "RU"}, {"measurement": "bound (RU)", "setting": "[7]", "result": 63.1, "unit": "RU"}]}
{"binder": "B2", "values": [{"measurement": "IC50 (read off the curve)", "setting": "[8]", "result": "~5", "unit": "µg/50 µl"}]}
{"binder": "B3", "values": [{"measurement": "binding result", "setting": "[1]", "result": "no binding (tested: 10 µg/ml)"}, {"measurement": "% dissociated", "setting": "[2]", "result": 70.5, "unit": "%"}, {"measurement": "bound after dissociation (RU)", "setting": "[2]", "result": 3.3, "unit": "RU"}, {"measurement": "% dissociated", "setting": "[3]", "result": 22, "unit": "%"}, {"measurement": "bound after dissociation (RU)", "setting": "[3]", "result": 43.8, "unit": "RU"}, {"measurement": "% remaining bound at the end of the dissociation period", "setting": "[4]", "result": 31.4, "unit": "%"}, {"measurement": "% remaining bound at the end of the dissociation period", "setting": "[5]", "result": "~81", "unit": "%"}, {"measurement": "bound (RU)", "setting": "[6]", "result": 11.2, "unit": "RU"}, {"measurement": "bound (RU)", "setting": "[7]", "result": 56.1, "unit": "RU"}]}
{"binder": "B4", "values": [{"measurement": "binding result", "setting": "[9]", "result": "no binding (tested: 10 µg/ml)"}]}
